Literature values in article PMC10105536.
Where “and” joins values, the source holds several entries; their conditions need not be identical. Equal values may be shown once.

Biological target: EGFR (Homo sapiens) (UniProt P00533)

Kd: 0.3 nM and 2 nM
Substance: EGF (from UniProt P01133)
